From patent US20240109971A1 (MONASH UNIVERSITY, published 2024)
Residue numbers refer to the chain shown, from its start. Where two headings read alike, the source gives them in different places. Values belong to the binder of their own block, whether it stands above or below them.

Legend:
[1] = target: T1, Peptide 1 (amino acid position 1-28 of the human CCR6) (human, biotinylated); assay: ELISA, biotinylated peptide on a streptavidin-coated plate
T1 construct: also called first 28 AA
T1 peptide: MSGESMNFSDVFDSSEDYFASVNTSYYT
Method: (§1) Two overlapping biotinylated peptides spanning the entire N-terminal region of human CCR6 were then synthesized and used in more defined anti-CCR6 mAb epitope mapping studies. Peptide 1 ([…], SEQ ID NO: 2) corresponds to amino acid position 1-28 of the human CCR6 and Peptide 2 ([…], SEQ ID NO: 101) corresponds to amino acid position 18-46 of the human CCR6. Briefly, multiwell plates were coated with streptavidin and washed before the biotinylated peptides were added to separate wells and incubated to facilitate binding of the peptides to the plate. Different anti-human CCR6 antibodies were then tested by adding the respective antibodies to the wells of the plate and incubating the plate. An isotype control and buffer only were included as negative controls. Following washing, appropriate conjugated antibodies were added and the plates were incubated. The plates were washed again and binding of the antibodies to the immobilised peptides was visualised (FIGS. 8 and 9).

human CCR6 [2] = target: T2, human CCR6 (human, UniProt P51684 1-374); assay: flow cytometry, hybridoma culture supernatant on L1.2/hCCR6 transfectants
T2 construct: also called hCCR6; CD196
T2 sequence: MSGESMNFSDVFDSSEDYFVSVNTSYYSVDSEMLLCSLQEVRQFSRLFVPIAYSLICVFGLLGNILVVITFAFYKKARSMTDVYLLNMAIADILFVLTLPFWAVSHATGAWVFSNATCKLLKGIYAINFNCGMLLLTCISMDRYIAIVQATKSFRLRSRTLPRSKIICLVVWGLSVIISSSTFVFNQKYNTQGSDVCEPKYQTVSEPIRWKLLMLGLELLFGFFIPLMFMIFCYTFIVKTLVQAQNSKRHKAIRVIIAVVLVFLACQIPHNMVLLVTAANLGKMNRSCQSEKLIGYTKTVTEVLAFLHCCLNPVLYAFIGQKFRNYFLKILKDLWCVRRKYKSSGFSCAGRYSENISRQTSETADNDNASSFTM

hCXCR1 [3] = target: T3, hCXCR1 (human, UniProt P25024 1-350); assay: flow cytometry, hybridoma culture supernatant on L1.2/hCXCR1 transfectants
T3 construct: whole, on cells; also called hCXCRI; human CXCR1 transfected L1.2 cells
T3 sequence (looked up): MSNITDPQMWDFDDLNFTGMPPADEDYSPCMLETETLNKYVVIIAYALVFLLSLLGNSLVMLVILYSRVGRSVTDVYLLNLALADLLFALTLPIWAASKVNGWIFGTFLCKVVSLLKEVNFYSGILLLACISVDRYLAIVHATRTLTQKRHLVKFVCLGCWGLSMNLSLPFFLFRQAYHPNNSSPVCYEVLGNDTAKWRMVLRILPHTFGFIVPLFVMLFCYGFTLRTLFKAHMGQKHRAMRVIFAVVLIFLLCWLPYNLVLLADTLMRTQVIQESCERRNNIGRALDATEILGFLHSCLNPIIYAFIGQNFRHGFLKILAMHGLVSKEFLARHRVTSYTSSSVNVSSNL

hCXCR2 [4] = target: T4, hCXCR2 (human, UniProt P25025 1-360); assay: flow cytometry, hybridoma culture supernatant on L1.2/hCXCR2 transfectants
T4 construct: whole, on cells; also called human CXCR2 transfected L1.2 cells
T4 sequence (looked up): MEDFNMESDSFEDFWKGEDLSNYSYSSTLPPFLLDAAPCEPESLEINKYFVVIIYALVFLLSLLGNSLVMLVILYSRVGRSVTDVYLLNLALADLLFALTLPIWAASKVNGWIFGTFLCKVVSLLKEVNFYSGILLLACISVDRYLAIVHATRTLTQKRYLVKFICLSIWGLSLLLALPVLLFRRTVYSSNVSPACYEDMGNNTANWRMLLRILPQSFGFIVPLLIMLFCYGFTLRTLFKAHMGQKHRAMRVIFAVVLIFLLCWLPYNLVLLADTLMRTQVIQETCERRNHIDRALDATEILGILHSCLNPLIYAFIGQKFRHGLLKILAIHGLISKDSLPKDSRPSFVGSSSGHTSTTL

hCXCR3 [5] = target: T5, hCXCR3 (human, UniProt P49682 1-368); assay: flow cytometry, hybridoma culture supernatant on L1.2/hCXCR3 transfectants
T5 construct: whole, on cells; also called human CXCR3 transfected L1.2 cells
T5 sequence (looked up): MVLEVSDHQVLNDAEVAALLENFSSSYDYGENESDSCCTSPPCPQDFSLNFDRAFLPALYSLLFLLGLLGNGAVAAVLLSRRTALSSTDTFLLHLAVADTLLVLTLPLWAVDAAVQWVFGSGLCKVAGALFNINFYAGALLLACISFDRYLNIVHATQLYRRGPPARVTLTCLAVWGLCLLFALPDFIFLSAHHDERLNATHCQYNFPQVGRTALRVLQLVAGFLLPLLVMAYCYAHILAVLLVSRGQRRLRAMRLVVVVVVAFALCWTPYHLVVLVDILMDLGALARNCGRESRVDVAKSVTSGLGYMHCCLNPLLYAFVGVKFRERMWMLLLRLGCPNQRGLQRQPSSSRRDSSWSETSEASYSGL

hCXCR1 [6] = target: T3, hCXCR1; assay: flow cytometry, hybridoma culture supernatant on L1.2/hCXCR1 transfectants; remark: listed apart in the source
Method: (§2) Monoclonal antibodies reactive with CCR6 were identified using human CCR6 transfected L1.2 cells, and untransfected L1.2 cells, or L1.2 cells transfected with unrelated or closely receptors such as hCXCRI, hCXCR2 or hCXCR3 using immunofluorescent staining and analysis using a FACSCalibur (BD Biosciences). Monoclonal antibody staining of cells was performed using standard procedures as described previously (Lee et al., 2006, Nat. Biotech. 24:1279-1284).
(§3) L1.2 transfectants expressing high levels of hCCR6 were used to immunize mice, and approximately 40 monoclonal antibodies were initially identified via flow cytometry that reacted with L1.2 cells transfected with hCCR6, of which approximately 10 reacted specifically with L1.2/hCCR6 transfectants but not with untransfected L1.2 cells or with L1.2 cells transfected with the closely related receptors hCXCRI, hCXCR2 or hCXCR3 (FIG. 3).

hCXCR2 [7] = target: T4, hCXCR2; assay: flow cytometry, hybridoma culture supernatant on L1.2/hCXCR2 transfectants; remark: listed apart in the source
Method: as §2, §3

hCXCR3 [8] = target: T5, hCXCR3; assay: flow cytometry, hybridoma culture supernatant on L1.2/hCXCR3 transfectants; remark: listed apart in the source
Method: as §2, §3

human CCR6 [9] = target: T2, human CCR6; assay: competition with 125I-MIP-3α for L1.2/hCCR6 transfectants, partially purified mAb
Method: For ligand binding analysis, recombinant human CCL20 (MIP3α) (“ligand”) was obtained from Peprotech (New Jersey, USA). […] Cells were washed once in binding buffer (50 mM Hepes, pH 7.5, 1 mM CaCl, 5 mM MgCb, 0.5% BSA) and resuspended in binding buffer at a concentration of 2.5×10^6 cells/ml. Cold Purified monoclonal antibody or diluted hybridoma culture medium (cold competitor) was added to a 96-well plate followed by an equal volume (40 μl) binding buffer containing 1×10^5 cells. Cells and competitor were preincubated at room temperature for 15 min. Then radiolabeled ligand (final concentration 0.5-2 nM) was added to each well to give a final reaction volume of 120 μl. After a 60-min incubation at room temperature, the cells were washed three times with 1 ml of binding buffer containing 150 mM NaCl. The radioactivity (amount of bound label) in the cell pellets was counted in a TopCount liquid scintillation counter (Packard). Non-specific background binding was calculated by incubating cells […]. Samples were assayed in duplicate.
After incubation and washing the amount of label bound to cells was measured and the percentage inhibition determined by comparison to a control reaction with no added antibody (FIGS. 1 and 5).

[10] = target: T6, Peptide 2 (amino acid position 18-46 of the human CCR6) (human, biotinylated); assay: ELISA, biotinylated peptide on a streptavidin-coated plate
T6 construct: also called AA 18 to 46
T6 peptide: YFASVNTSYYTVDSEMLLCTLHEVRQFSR
Method: as §1

binding result [1]: binds | binding result (human CCR6 [2]): binds
B1: AB3 (antibody, V domains shown)
VH: EVNLVESGGGLVQPGGSLKLSCAASGFTFSDYYLYWVRQTPEKRLEWVTYITNGGGRTYYSDTVRGRFTISRDNAKNTLYLQMSRLKSEDTAMYYCASPPLGGAWFGYWGQGTLVTVS
VL: DVLMTQTPLSLPVSLGDQASISCRSSQSIVHSNGNTYLEWYLQKPGQSPKLLIYKVSKRFSGVPDRFSGSGSGTDFTLKISRVEAEDLGVYYCFQGSHVPLTFGAGTKLELKR
notes: Mouse hybridoma antibody, isotype IgG1; also called AB3-N21
binding result (hCXCR1 [3]): no binding (tested: not given (culture supernatant)) | binding result (hCXCR2 [4]): no binding (tested: not given (culture supernatant)) | binding result (hCXCR3 [5]): no binding (tested: not given (culture supernatant))

binding result [1]: binds | binding result (human CCR6 [9]): binds
B2: AB1 (antibody, V domains shown)
VH: B1 VH with L34M, G55D, A97T
VL: B1 VL
notes: Mouse hybridoma antibody, isotype IgG1; also called AB1-O17
binding result (hCXCR1 [6]): no binding (tested: not given (culture supernatant)) | binding result (hCXCR2 [7]): no binding (tested: not given (culture supernatant)) | binding result (hCXCR3 [8]): no binding (tested: not given (culture supernatant))

binding result (human CCR6 [9]): binds
B3: AB5 (antibody, V domains shown)
VH: B1 VH with A23E, L34M, G55A, G107A
VL: B1 VL with L3S, I29L
notes: Mouse hybridoma antibody, isotype IgG1; also called AB5-M19

binding result [1]: binds | IC50 (read off the curve) (human CCR6 [9]): ~7 nM
B4: mouse AB6 mAb (antibody, V domains shown)
VH: B1 VH with N3K, T28P, T49A, G55V, T63S, R65K, A92S, A97T, G107A
VL: B1 VL
notes: Mouse hybridoma antibody, isotype IgG2b; also called mAB6; AB6-K5
binding result (hCXCR1 [3]): no binding (tested: not given (culture supernatant)) | binding result (hCXCR2 [4]): no binding (tested: not given (culture supernatant)) | binding result (hCXCR3 [5]): no binding (tested: not given (culture supernatant))

binding result (human CCR6 [2]): binds
B5: AB4 (antibody, V domains shown)
VH: B1 VH with L34M
VL: B1 VL with I29L, E84G
notes: Mouse hybridoma antibody, isotype IgG2b; also called AB4-K15
binding result (hCXCR1 [3]): no binding (tested: not given (culture supernatant)) | binding result (hCXCR2 [4]): no binding (tested: not given (culture supernatant)) | binding result (hCXCR3 [5]): no binding (tested: not given (culture supernatant))

binding result [1]: binds | binding result (human CCR6 [9]): binds
B6: AB2 (antibody, V domains shown)
VH: B1 VH with A23E, T28S, L34M, V64I, K76R, A97T
VL: B1 VL with L3S, I29L
notes: Mouse hybridoma antibody, isotype IgG1; also called AB2-O17

binding result [1]: binds | binding result (human CCR6 [9]): binds
B7: AB11 (antibody, V domains shown)
VH: B1 VH with K19I, A23E, T28S, L34M, T63A, V64I, K76R, A97T
VL: B1 VL with L3S, I29L
notes: Mouse hybridoma antibody, isotype IgG1; also called AB11-M9

binding result [1]: binds | binding result [10]: binds
B8: AB7 (antibody, V domains shown)
VH: QDQLQQSGVALARPGASVKLSCKASEYTFKSFGLGWVKQRPGQGLEWIGEIYPRSGNTYYNEKVKGKVRLTADKSSNSVYMEFRSLTSEDSAVYFCARSPYDGYFDYWGQGTTLTVS
VL: DVVMTHSPLSLPVSLGDQASISCRSSQSLLHINGNTYLHWYLQKPGQSPKLLIYRVSNRLSGVPDRFSGSGSGTDFTLKISRVEAEDLGVYFCSQSTHVPRTFGGGTKLEIKR
notes: Mouse hybridoma antibody; also called clone AB7
